Source: paper PMC5716075, “Conserved asymmetry underpins homodimerization of Dicer-associated double-stranded RNA-binding proteins” (Nucleic Acids Research, 2017)

B1: PACT-D3 (PACT residues 239-313, core dsRBD 3), wild type [human] / itself (parent)
chain: TDYIQLLSEIAKEQGFNITYLDIDELSANGQYQCLAELSTSPITVCHGSGISCGNAQSDAAHNALQYLKIIAERK
B2: Loqs-D3 (Loquacious residues 392-463, dsRBD 3), wild type [Drosophila] / itself (parent)
chain: IDYIKLLGEIATENQFEVTYVDIEEKTFSGQFQCLVQLSTLPVGVCHGSGPTAADAQRHAAQNALEYLKIMT
B3: PACT-Ext-D3 (PACT residues 208-313, dsRBD 3 with the conserved N-terminal extension), wild type [human] / itself (parent)
chain: GHSLGCTWHSLRNSPGEKINLLKRSLLSIPNTDYIQLLSEIAKEQGFNITYLDIDELSANGQYQCLAELSTSPITVCHGSGISCGNAQSDAAHNALQYLKIIAERK

Variants of: B1
Test: SEC-MALLS
Conditions: with itself

Variant	screen value [kDa]
chain 1 L35R	8.8

Variants of: B2
Test: SEC-MALLS
Conditions: with itself

Variant	screen value [kDa]
chain 1 L35R	8

Variants of: B3
Test: SEC-MALLS
Conditions: with itself

Variant	screen value [kDa]
chain 1 L66R	12.3
